Data reported in publication doi:10.1101/2023.07.25.550481.

Molecular target: T1, ZBTB48 ZnF10-11-C (Homo sapiens, UniProt P10074 548-620)
T1 sequence: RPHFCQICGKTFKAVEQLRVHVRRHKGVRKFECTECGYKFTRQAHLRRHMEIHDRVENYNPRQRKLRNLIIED
Test: crystal structure

B1: CIITA e.2 crystal duplex (dsDNA)
DNA 1: CACAAGTGAGGGATCA
DNA 2: GTGATCCCTCACTTGT
- binding result: binds
